Laboratory results reported in patent publication US20250154261A1 (published 2025).
Read-outs that look alike come from different tables or passages of the source.

B1: ADI-10157 Fab (Fab, V domains shown)
VH: QVQLQESGPGLVKPSETLSLTCTVSGGSISSYYWSWIRQPPGKGLEWIGSIYYSGSTNYNPSLKSRVTISVDTSKNQFSLKLSSVTAADTAVYYCARVGGVYSTIETYGMDVWGQGTTVTVSS
VL: EIVMTQSPATLSVSPGERATLSCRASQSVSSNLAWYQQKPGQAPRLLIYGASTRATGIPARFSGSGSGTEFTLTISSLQSEDFAVYYCQQYTVYPPTFGGGTKVEIK
notes: Fab fragment; also called Ab13
B2: ADI-11828 Fab (Fab, V domains shown)
VH: EVQLVESGGGLVQPGGSLRLSCAASGFTFSSYWMSWVRQAPGKGLEWVANINQDGSEVYYVDSVKGRFTISRDNAKNSLYLQMNSLRAEDTAVYYCARDVGPGIAYQGHFDYWGQGTLVTVSS
VL: DIQMTQSPSSLSASVGDRVTITCRASQSIYYYLNWYQQKPGKAPKLLIYAASSRQSGVPSRFSGSGSGTDFTLTISSLQPEDFATYYCQQVYDTPLTFGGGTKVEIK
notes: Fab fragment; also called Ab27
B3: ADI-11830 Fab (Fab, V domains shown)
VH: EVQLVESGGGLVQPGGSLRLSCAASGFTFSSYWMSWVRQAPGKGLEWVANINTDGSEVYYVDSVKGRFTISRDNAKNSLYLQMNSLRAEDTAVYYCARDVGPGIAYQGHFDYWGQGTLVTVSS
VL: DIQMTQSPSSLSASVGDRVTITCRASQVIYSYLNWYQQKPGKAPKLLIYAASSLKSGVPSRFSGSGSGTDFTLTISSLQPEDFATYYCQQVYDTPLTFGGGTKVEIK
notes: Fab fragment; also called Ab9
B4: ADI-10164 Fab (Fab, V domains shown)
VH: QVQLQESGPGLVKPSETLSLTCAVSGYSISSGYYWGWIRQPPGKGLEWIGSIYHSGSTNYNPSLKSRVTISVDTSKNQFSLKLSSVTAADTAVYYCARLPPWFGFSYFDLWGRGTLVTVSS
VL: EIVLTQSPATLSLSPGERATLSCRASQSVSSYLAWYQQKPGQAPRLLIYDASNRATGIPARFSGSGSGTDFTLTISSLEPEDFAVYYCQQVDNYPPTFGGGTKVEIK
notes: Fab fragment; also called Ab18
B5: ADI-11835 Fab (Fab, V domains shown)
VH: QLQLQESGPGLVKPSETLSLTCTVSGGSISSTDYYWGWIRQPPGKGLEWIGSIGYSGTYYNPSLKSRVTISVDTSKNQFSLKLSSVTAADTAVYYCARETAHDVHGMDVWGQGTTVTVSS
VL: EIVLTQSPATLSLSPGERATLSCRASHSVYSYLAWYQQKPGQAPRLLIYDASNRATGIPARFSGSGSGTDFTLTISSLEPEDFAVYYCQQYDNLPTFGGGTKVEIK
notes: Fab fragment; also called Ab10; 135 (so in the source)
B6: ADI-10160 Fab (Fab, V domains shown)
VH: EVQLVESGGGLVQPGGSLRLSCAASGFTFSSYWMSWVRQAPGKGLEWVANINQDGSEKYYVDSVKGRFTISRDNAKNSLYLQMNSLRAEDTAVYYCAREANYYGNVGDDYWGQGTLVTVSS
VL: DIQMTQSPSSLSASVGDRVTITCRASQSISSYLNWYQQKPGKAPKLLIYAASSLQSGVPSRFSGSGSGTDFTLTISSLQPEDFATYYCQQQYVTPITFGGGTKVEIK
notes: Fab fragment; also called Ab15
B7: ADI-11825 Fab (Fab, V domains shown)
VH: EVQLVESGGGLVQPGGSLRLSCAASGFTFGGYWMSWVRQAPGKGLEWVANINQDGSEEYYVDSVKGRFTISRDNAKNSLYLQMNSLRAEDTAVYYCAREANYYGNVGDDYWGQGTLVTVSS
VL: DIQMTQSPSSLSASVGDRVTITCRASQSIYNYLNWYQQKPGKAPKLLIYAASNLHSGVPSRFSGSGSGTDFTLTISSLQPEDFATYYCQQAFHVPITFGGGTKVEIK
notes: Fab fragment; also called Ab25
B8: ADI-11802 Fab (Fab, V domains shown)
VH: QVQLVQSGAEVKKPGASVKVSCKASGYTFSGYYMHWVRQAPGQGLEWMGMINPYGGSTRYAQKFQGRVTMTRDTSTSTVYMELSSLRSEDTAVYYCAREAADGFVGERYFDLWGRGTLVTVSS
VL: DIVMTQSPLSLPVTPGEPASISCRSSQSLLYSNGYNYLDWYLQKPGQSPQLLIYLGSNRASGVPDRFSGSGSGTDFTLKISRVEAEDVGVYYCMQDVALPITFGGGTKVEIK
notes: Fab fragment; also called Ab23
B9: ADI-11807 Fab (Fab, V domains shown)
VH: EVQLVESGGGLVQPGGSLRLSCAASGFTFGSYWMSWVRQAPGKGLEWVATIKQDGSEKSYVDSVKGRFTISRDNAKNSLYLQMNSLRAEDTAVYYCARPLNAGELDVWGQGTMVTVSS
VL: DIQMTQSPSTLSASVGDRVTITCRASQSISSWLAWYQQKPGKAPKLLIYEASSLESGVPSRFSGSGSGTEFTLTISSLQPDDFATYYCQQSQSYPPITFGGGTKVEIK
notes: Fab fragment; also called Ab5; I07
B10: ADI-11809 Fab (Fab, V domains shown)
VH: EVQLVESGGGLVQPGGSLRLSCAASGFTFPSYWMSWVRQAPGKGLEWVATIKRDGSEKGYVDSVKGRFTISRDNAKNSLYLQMNSLRAEDTAVYYCARPLNAGELDVWGQGTMVTVSS
VL: DIQMTQSPSTLSASVGDRVTITCRASQSISSWLAWYQQKPGKAPKLLIYEASSLESGVPSRFSGSGSGTEFTLTISSLQPDDFATYYCQQSQSYPPITFGGGTKVEIK
notes: Fab fragment; also called Ab6
B11: ADI-10159 IgG (antibody, V domains shown)
VH: EVQLVESGGGLVQPGGSLRLSCAASGFTFSSYGMSWVRQAPGKGLEWVANIKQDGSEKYYVDSVKGRFTISRDNAKNSLYLQMNSLRAEDTAVYYCAREGGPYYDSSGYFVYYGMDVWGQGTTVTVSS
VL: DIQMTQSPSTLSASVGDRVTITCRASQSISSWLAWYQQKPGKAPKLLIYDASSLESGVPSRFSGSGSGTEFTLTISSLQPDDFATYYCQQYESFPTFGGGTKVEIK
notes: IgG; also called Ab1; G59
B12: ADI-10159 Fab (Fab, V domains shown)
VH: EVQLVESGGGLVQPGGSLRLSCAASGFTFSSYGMSWVRQAPGKGLEWVANIKQDGSEKYYVDSVKGRFTISRDNAKNSLYLQMNSLRAEDTAVYYCAREGGPYYDSSGYFVYYGMDVWGQGTTVTVSS
VL: DIQMTQSPSTLSASVGDRVTITCRASQSISSWLAWYQQKPGKAPKLLIYDASSLESGVPSRFSGSGSGTEFTLTISSLQPDDFATYYCQQYESFPTFGGGTKVEIK
notes: Fab fragment; also called Ab1; G59
B13: ADI-11819 Fab (Fab, V domains shown)
VH: EVQLVESGGGLVKPGGSLRLSCAASGFTFSSYAMSWVRQAPGKGLEWVSSISSSSEGIYYADSVKGRFTISRDNAKNSLYLQMNSLRAEDTAVYYCAREGGPYYDSSGYFVYYGMDVWGQGTTVTVSS
VL: DIQMTQSPSTLSASVGDRVTITCRASNSISSWLAWYQQKPGKAPKLLIYEASSTKSGVPSRFSGSGSGTEFTLTISSLQPDDFATYYCQQYDDLPTFGGGTKVEIK
notes: Fab fragment; also called Ab8
B14: ADI-11776 Fab (Fab, V domains shown)
VH: EVQLLESGGGLVQPGGSLRLSCAASGFTFSKYTMSWVRQAPGKGLEWVSAIVGSGESTYFADSVKGRFTISRDNSKNTLYLQMNSLRAEDTAVYYCAREGGPYYDSSGYFVYYGMDVWGQGTTVTVSS
VL: DIQMTQSPSTLSASVGDRVTITCRASQSISSWLAWYQQKPGKAPKLLIYKASSLESGVPSRFSGSGSGTEFTLTISSLQPDDFATYYCQQYDDLPTFGGGTKVEIK
notes: Fab fragment; also called Ab3; H76
B15: ADI-11815 Fab (Fab, V domains shown)
VH: QVQLVQSGAEVKKPGASVKVSCKASGYTFGTYYMHWVRQAPGQGLEWMGIINPSRGSTVYAQKFQGRVTMTRDTSTSTVYMELSSLRSEDTAVYYCARGAGYDDEDMDVWGKGTTVTVSS
VL: DIQMTQSPSSVSASVGDRVTITCRASQGIDSWLAWYQQKPGKAPKLLIYAASSLQSGVPSRFSGSGSGTDFTLTISSLQPEDFATYYCQQAHSYPLTFGGGTKVEIK
notes: Fab fragment; also called Ab7
B16: ADI-10161 Fab (Fab, V domains shown)
VH: EVQLVESGGGLVQPGGSLRLSCAASGFTFSSYWMSWVRQAPGKGLEWVANINQDGSEKYYVDSVKGRFTISRDNAKNSLYLQMNSLRAEDTAVYYCAREGGDSWYHAFDIWGQGTMVTVSS
VL: DIQMTQSPSSVSASVGDRVTITCRASQGISSWLAWYQQKPGKAPKLLIYAASNLQSGVPSRFSGSGSGTDFTLTISSLQPEDFATYYCQQKLSLPLTFGGGTKVEIK
notes: Fab fragment; also called Ab16
B17: ADI-11839 Fab (Fab, V domains shown)
VH: QVQLVQSGAEVKKPGASVKVSCKASGYTFSNYYMHWVRQAPGQGLEWMGWINPFSGGTRYAQKFQGRVTMTRDTSTSTVYMELSSLRSEDTAVYYCARDVGSSAYYYMDVWGKGTTVTVSS
VL: DIQMTQSPSSVSASVGDRVTITCEASKGISSWLAWYQQKPGKAPKLLIYAASDLQSGVPSRFSGSGSGTDFTLTISSLQPEDFATYYCQQAFLFPPTFGGGTKVEIK
notes: Fab fragment; also called Ab28
B18: ADI-11812 Fab (Fab, V domains shown)
VH: QVQLVQSGAEVKKPGASVKVSCKASGYTFEIYYMHWVRQAPGQGLEWMGIINPSSGSTVYAQKFQGRVTMTRDTSTSTVYMELSSLRSEDTAVYYCARGAGYDDEDMDVWGKGTTVTVSS
VL: DIQMTQSPSSVSASVGDRVTITCRASQGIDSWLAWYQQKPGKAPKLLIYAASSLQSGVPSRFSGSGSGTDFTLTISSLQPEDFATYYCQQAHSYPLTFGGGTKVEIK
notes: Fab fragment; also called Ab24

Columns and labels:
[1] = biological target: Human CD33 S128N (human, UniProt P20138 18-259); test: SPR captured Fab
[2] = biological target: T1, Human CD33 R69G (human, UniProt P20138 18-259); test: SPR captured Fab
[3] = biological target: T2, human CD33 (antigen of the BLI measurement, Table 11) (human, UniProt P20138 18-259, limits assumed); test: BLI, IgG on AHC
T2 construct: 100 nM antigen in solution; construct not described; whole entry named

[4] = biological target: T3, V domain of human CD33 (human, UniProt P20138 18-139, limits assumed); test: SPR captured Fab
T3 construct: Whole entry named; also called Human CD33 V domain

[5] = biological target: T3, V domain of human CD33; test: SPR captured Fab; remark: listed apart in the source
[6] = biological target: T1, Human CD33 R69G; test: SPR captured Fab; remark: listed apart in the source

| Binder | Kd [1] [nM] | koff [1] [s⁻¹] | kon [1] [M⁻¹ s⁻¹] | Kd [2] [nM] | koff [2] [s⁻¹] | kon [2] [M⁻¹ s⁻¹] | also measured |
| --- | --- | --- | --- | --- | --- | --- | --- |
| B1 | 163 | 0.00924 | 56500 | 17.8 | 0.0287 | 1.56e+06 | – |
| B2 | 5.41 | 0.00742 | 1.37e+06 | 6.03 | 0.007 | 1.16e+06 | – |
| B3 | – | – | – | 2.94 | 0.00663 | 2.27e+06 | – |
| B4 | 279 | 0.0539 | 193000 | 113 | 0.035 | 308000 | – |
| B5 | – | – | – | 0.67 | 0.00205 | 3.07e+06 | – |
| B6 | 85.7 | 0.0673 | 786000 | 63.7 | 0.0533 | 836000 | – |
| B7 | 3.09 | 0.00649 | 2.1e+06 | 3.74 | 0.00695 | 1.86e+06 | – |
| B8 | 0.809 | 0.00059 | 662000 | – | – | – | – |
| B9 | – | – | – | 0.43 | 0.000259 | 597000 | – |
| B10 | – | – | – | 0.22 | 0.000179 | 815000 | – |
| B11 | – | – | – | – | – | – | Kd [3]: 0.58 nM; koff [3]: 0.0002 s⁻¹ |
| B12 | – | – | – | 5.68 | 0.00243 | 426000 | – |
| B13 | – | – | – | 0.09 | 0.000244 | 2.78e+06 | – |
| B14 | – | – | – | 0.22 | 0.000426 | 1.98e+06 | koff [4]: 0.0143 s⁻¹; koff [5]: 0.0143 s⁻¹ |
| B15 | – | – | – | 4.34 | 0.0013 | 300000 | Kd [6]: 4.34 nM; koff [6]: 0.0013 s⁻¹; kon [6]: 300000 M⁻¹ s⁻¹ |
| B16 | 63.6 | 0.0385 | 605000 | 48.9 | 0.0307 | 629000 | – |
| B17 | 29.5 | 0.0284 | 963000 | – | – | – | – |
| B18 | 2.01 | 0.00112 | 556000 | 6.74 | 0.00228 | 338000 | – |
